Target: receptor for UNQ733 on the surface of lymphoma cell lines and B cells (unidentified) (human)
Test: flow cytometry on purified human peripheral blood B cells, 48 h with anti-CD40 and rIL-4

- fold increase of binding on B cells stimulated with anti-CD40 and IL-4 against resting B cells: 2 to 5 fold
Substance: His8-tagged UNQ733 polypeptide (ligand)

— patent publication US20090054631A1
